From PMC5576896 (Cell reports, 2016)

B2: recombinant RECQL4 (natural protein, human, UniProt O94761 1-1208, looked up)
chain: MERLRDVRERLQAWERAFRRQRGRRPSQDDVEAAPEETRALYREYRTLKRTTGQAGGGLRSSESLPAAAEEAPEPRCWGPHLNRAATKSPQSTPGRSRQGSVPDYGQRLKANLKGTLQAGPALGRRPWPLGRASSKASTPKPPGTGPVPSFAEKVSDEPPQLPEPQPRPGRLQHLQASLSQRLGSLDPGWLQRCHSEVPDFLGAPKACRPDLGSEESQLLIPGESAVLGPGAGSQGPEASAFQEVSIRVGSPQPSSSGGEKRRWNEEPWESPAQVQQESSQAGPPSEGAGAVAVEEDPPGEPVQAQPPQPCSSPSNPRYHGLSPSSQARAGKAEGTAPLHIFPRLARHDRGNYVRLNMKQKHYVRGRALRSRLLRKQAWKQKWRKKGECFGGGGATVTTKESCFLNEQFDHWAAQCPRPASEEDTDAVGPEPLVPSPQPVPEVPSLDPTVLPLYSLGPSGQLAETPAEVFQALEQLGHQAFRPGQERAVMRILSGISTLLVLPTGAGKSLCYQLPALLYSRRSPCLTLVVSPLLSLMDDQVSGLPPCLKAACIHSGMTRKQRESVLQKIRAAQVHVLMLTPEALVGAGGLPPAAQLPPVAFACIDEAHCLSQWSHNFRPCYLRVCKVLRERMGVHCFLGLTATATRRTASDVAQHLAVAEEPDLHGPAPVPTNLHLSVSMDRDTDQALLTLLQGKRFQNLDSIIIYCNRREDTERIAALLRTCLHAAWVPGSGGRAPKTTAEAYHAGMCSRERRRVQRAFMQGQLRVVVATVAFGMGLDRPDVRAVLHLGLPPSFESYVQAVGRAGRDGQPAHCHLFLQPQGEDLRELRRHVHADSTDFLAVKRLVQRVFPACTCTCTRPPSEQEGAVGGERPVPKYPPQEAEQLSHQAAPGPRRVCMGHERALPIQLTVQALDMPEEAIETLLCYLELHPHHWLELLATTYTHCRLNCPGGPAQLQALAHRCPPLAVCLAQQLPEDPGQGSSSVEFDMVKLVDSMGWELASVRRALCQLQWDHEPRTGVRRGTGVLVEFSELAFHLRSPGDLTAEEKDQICDFLYGRVQARERQALARLRRTFQAFHSVAFPSCGPCLEQQDEERSTRLKDLLGRYFEEEEGQEPGGMEDAQGPEPGQARLQDWEDQVRCDIRQFLSLRPEEKFSSRAVARIFHGIGSPCYPAQVYGQDRRFWRKYLHLSFHALVGLATEELLQVAR

What was measured:
[1] = biological target: B2; test: co-IP
[2] = biological target: MRE11-RAD50-NBS1 complex (recombinant) (human, UniProt P49959 1-708; Q92878 1-1312; O60934 1-754); test: co-IP
Chain of MRE11-RAD50-NBS1 complex (recombinant) (Q92878 whole entry, chain 2 of 2): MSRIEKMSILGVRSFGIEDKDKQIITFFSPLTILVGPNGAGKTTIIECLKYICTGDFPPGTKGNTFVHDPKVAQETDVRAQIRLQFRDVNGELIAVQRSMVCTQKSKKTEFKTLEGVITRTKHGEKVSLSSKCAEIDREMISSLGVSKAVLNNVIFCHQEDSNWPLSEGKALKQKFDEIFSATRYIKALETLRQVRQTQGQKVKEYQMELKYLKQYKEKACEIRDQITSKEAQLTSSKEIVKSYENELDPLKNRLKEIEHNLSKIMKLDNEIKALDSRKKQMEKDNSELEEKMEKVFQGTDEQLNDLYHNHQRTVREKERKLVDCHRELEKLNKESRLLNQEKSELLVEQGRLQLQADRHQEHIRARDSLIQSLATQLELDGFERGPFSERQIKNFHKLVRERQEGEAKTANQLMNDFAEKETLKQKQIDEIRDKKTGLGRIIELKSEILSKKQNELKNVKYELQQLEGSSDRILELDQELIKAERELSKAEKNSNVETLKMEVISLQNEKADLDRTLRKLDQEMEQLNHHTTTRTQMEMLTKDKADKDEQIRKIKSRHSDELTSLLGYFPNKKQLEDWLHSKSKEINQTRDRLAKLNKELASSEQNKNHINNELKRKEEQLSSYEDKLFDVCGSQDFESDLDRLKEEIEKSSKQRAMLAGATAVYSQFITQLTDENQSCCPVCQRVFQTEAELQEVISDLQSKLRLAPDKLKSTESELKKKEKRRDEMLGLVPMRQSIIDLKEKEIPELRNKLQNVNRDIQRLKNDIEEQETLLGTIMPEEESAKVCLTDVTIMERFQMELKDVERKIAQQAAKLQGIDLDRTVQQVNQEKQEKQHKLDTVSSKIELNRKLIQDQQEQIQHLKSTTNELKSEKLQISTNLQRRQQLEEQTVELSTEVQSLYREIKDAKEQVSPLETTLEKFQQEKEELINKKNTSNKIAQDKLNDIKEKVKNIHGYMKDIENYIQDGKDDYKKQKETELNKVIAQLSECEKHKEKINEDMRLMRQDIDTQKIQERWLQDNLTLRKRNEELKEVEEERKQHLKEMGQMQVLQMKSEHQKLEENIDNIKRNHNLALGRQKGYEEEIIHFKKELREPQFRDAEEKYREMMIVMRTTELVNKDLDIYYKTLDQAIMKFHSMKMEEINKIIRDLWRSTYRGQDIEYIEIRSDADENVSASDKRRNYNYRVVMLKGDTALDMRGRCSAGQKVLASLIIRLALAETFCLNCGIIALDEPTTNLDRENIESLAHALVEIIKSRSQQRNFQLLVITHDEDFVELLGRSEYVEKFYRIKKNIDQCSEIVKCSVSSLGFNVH
Chain of MRE11-RAD50-NBS1 complex (recombinant) (O60934 whole entry, chain 3 of 2): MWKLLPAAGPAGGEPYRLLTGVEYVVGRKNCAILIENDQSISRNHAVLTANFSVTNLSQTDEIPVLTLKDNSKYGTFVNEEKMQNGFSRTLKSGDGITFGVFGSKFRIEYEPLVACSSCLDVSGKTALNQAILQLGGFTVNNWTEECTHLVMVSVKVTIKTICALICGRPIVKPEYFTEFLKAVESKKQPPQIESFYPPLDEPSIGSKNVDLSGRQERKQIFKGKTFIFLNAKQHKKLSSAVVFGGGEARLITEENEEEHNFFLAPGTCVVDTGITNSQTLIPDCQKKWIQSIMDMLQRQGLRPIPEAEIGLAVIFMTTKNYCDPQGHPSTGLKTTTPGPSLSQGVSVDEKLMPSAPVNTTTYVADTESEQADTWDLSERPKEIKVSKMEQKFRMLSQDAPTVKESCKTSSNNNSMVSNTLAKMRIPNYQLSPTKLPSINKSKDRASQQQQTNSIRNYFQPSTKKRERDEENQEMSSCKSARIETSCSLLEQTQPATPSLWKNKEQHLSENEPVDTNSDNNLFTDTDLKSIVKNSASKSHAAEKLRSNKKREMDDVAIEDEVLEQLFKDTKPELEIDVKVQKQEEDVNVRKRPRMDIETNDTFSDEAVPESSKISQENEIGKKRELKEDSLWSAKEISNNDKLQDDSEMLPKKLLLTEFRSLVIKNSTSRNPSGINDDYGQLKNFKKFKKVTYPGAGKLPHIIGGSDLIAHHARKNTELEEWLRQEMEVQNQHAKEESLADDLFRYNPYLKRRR

[3] = biological target: T1, RECQL4-KM-3XFLAG (human, UniProt O94761 1-1208, lysine 508 replaced with methionine (RECQL4-KM)); test: pull-down
T1 sequence (looked up): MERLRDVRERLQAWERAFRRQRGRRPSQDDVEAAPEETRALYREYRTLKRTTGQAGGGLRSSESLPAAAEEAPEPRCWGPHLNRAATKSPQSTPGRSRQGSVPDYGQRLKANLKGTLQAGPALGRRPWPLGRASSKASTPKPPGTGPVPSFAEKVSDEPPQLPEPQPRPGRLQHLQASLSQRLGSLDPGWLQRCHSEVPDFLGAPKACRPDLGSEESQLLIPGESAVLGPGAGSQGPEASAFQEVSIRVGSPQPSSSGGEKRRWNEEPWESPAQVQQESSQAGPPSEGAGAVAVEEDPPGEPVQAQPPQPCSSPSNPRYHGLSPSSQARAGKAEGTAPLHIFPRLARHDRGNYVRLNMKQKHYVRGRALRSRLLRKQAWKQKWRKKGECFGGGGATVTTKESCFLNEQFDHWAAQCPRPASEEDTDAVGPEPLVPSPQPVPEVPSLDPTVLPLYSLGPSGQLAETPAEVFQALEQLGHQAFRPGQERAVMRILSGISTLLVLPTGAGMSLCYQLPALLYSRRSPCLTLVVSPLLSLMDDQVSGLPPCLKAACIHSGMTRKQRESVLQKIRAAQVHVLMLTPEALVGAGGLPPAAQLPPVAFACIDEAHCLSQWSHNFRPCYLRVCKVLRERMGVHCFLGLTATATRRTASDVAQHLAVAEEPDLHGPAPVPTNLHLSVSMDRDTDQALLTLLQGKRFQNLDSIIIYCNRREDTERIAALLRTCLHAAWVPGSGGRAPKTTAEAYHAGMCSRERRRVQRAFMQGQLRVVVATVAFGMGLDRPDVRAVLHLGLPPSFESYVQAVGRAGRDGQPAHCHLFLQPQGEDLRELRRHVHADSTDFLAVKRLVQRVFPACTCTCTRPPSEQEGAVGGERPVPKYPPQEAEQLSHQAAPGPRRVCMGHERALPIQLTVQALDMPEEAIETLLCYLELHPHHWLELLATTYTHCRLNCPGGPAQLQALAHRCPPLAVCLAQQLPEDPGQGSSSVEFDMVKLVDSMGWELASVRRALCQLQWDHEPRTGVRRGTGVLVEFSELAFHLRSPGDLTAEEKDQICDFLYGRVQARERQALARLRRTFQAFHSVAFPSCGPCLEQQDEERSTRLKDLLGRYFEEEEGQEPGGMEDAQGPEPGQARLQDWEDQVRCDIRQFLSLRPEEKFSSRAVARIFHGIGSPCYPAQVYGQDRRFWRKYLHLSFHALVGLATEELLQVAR

[4] = biological target: T2, purified RECQL4-3XFLAG (human, UniProt O94761 1-1208); test: pull-down
T2 sequence (looked up): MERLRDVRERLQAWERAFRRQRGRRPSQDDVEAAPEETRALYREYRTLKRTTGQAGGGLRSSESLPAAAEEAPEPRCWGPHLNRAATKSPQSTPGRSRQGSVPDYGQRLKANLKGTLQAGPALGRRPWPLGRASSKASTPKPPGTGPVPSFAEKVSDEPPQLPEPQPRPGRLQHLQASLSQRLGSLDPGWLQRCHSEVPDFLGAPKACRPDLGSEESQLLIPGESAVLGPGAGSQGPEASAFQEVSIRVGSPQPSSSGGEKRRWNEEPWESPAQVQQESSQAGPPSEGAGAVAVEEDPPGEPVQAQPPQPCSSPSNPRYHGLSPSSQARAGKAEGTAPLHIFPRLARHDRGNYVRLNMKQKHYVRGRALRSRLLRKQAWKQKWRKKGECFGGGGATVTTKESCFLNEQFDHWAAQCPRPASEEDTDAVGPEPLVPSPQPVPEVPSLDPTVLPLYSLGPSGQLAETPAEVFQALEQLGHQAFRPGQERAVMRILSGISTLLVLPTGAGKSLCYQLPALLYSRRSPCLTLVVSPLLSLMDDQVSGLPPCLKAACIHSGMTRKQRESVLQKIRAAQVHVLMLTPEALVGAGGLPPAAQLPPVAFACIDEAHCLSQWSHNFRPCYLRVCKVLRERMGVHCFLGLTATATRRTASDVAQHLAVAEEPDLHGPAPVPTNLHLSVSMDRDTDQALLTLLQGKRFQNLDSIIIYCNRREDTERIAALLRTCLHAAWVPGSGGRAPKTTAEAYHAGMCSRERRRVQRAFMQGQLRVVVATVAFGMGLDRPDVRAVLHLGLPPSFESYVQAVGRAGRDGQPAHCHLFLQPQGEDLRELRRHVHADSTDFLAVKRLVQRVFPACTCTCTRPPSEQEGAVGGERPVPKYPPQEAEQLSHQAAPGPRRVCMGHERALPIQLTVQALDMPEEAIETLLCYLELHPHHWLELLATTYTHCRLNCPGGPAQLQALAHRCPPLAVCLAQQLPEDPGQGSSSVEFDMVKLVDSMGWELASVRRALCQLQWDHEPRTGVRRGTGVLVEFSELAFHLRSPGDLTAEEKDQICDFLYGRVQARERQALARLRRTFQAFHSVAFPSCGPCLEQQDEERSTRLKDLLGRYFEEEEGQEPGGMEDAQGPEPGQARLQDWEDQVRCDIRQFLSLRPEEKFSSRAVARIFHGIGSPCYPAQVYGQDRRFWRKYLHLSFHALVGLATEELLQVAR

B1: recombinant CtIP (natural protein, human, UniProt Q99708 1-897, looked up)
chain: MNISGSSCGSPNSADTSSDFKDLWTKLKECHDREVQGLQVKVTKLKQERILDAQRLEEFFTKNQQLREQQKVLHETIKVLEDRLRAGLCDRCAVTEEHMRKKQQEFENIRQQNLKLITELMNERNTLQEENKKLSEQLQQKIENDQQHQAAELECEEDVIPDSPITAFSFSGVNRLRRKENPHVRYIEQTHTKLEHSVCANEMRKVSKSSTHPQHNPNENEILVADTYDQSQSPMAKAHGTSSYTPDKSSFNLATVVAETLGLGVQEESETQGPMSPLGDELYHCLEGNHKKQPFEESTRNTEDSLRFSDSTSKTPPQEELPTRVSSPVFGATSSIKSGLDLNTSLSPSLLQPGKKKHLKTLPFSNTCISRLEKTRSKSEDSALFTHHSLGSEVNKIIIQSSNKQILINKNISESLGEQNRTEYGKDSNTDKHLEPLKSLGGRTSKRKKTEEESEHEVSCPQASFDKENAFPFPMDNQFSMNGDCVMDKPLDLSDRFSAIQRQEKSQGSETSKNKFRQVTLYEALKTIPKGFSSSRKASDGNCTLPKDSPGEPCSQECIILQPLNKCSPDNKPSLQIKEENAVFKIPLRPRESLETENVLDDIKSAGSHEPIKIQTRSDHGGCELASVLQLNPCRTGKIKSLQNNQDVSFENIQWSIDPGADLSQYKMDVTVIDTKDGSQSKLGGETVDMDCTLVSETVLLKMKKQEQKGEKSSNEERKMNDSLEDMFDRTTHEEYESCLADSFSQAADEEEELSTATKKLHTHGDKQDKVKQKAFVEPYFKGDERETSLQNFPHIEVVRKKEERRKLLGHTCKECEIYYADMPAEEREKKLASCSRHRFRYIPPNTPENFWEVGFPSTQTCMERGYIKEDLDPCPRPKRRQPYNAIFSPKGKEQKT
Q: Does B1 bind [1]?
A: binds

Q: Does B2 bind [2]?
A: binds

B3: purified YFP-MRE11 (natural protein, human, UniProt P49959 1-708, looked up)
chain: MSTADALDDENTFKILVATDIHLGFMEKDAVRGNDTFVTLDEILRLAQENEVDFILLGGDLFHENKPSRKTLHTCLELLRKYCMGDRPVQFEILSDQSVNFGFSKFPWVNYQDGNLNISIPVFSIHGNHDDPTGADALCALDILSCAGFVNHFGRSMSVEKIDISPVLLQKGSTKIALYGLGSIPDERLYRMFVNKKVTMLRPKEDENSWFNLFVIHQNRSKHGSTNFIPEQFLDDFIDLVIWGHEHECKIAPTKNEQQLFYISQPGSSVVTSLSPGEAVKKHVGLLRIKGRKMNMHKIPLHTVRQFFMEDIVLANHPDIFNPDNPKVTQAIQSFCLEKIEEMLENAERERLGNSHQPEKPLVRLRVDYSGGFEPFSVLRFSQKFVDRVANPKDIIHFFRHREQKEKTGEEINFGKLITKPSEGTTLRVEDLVKQYFQTAEKNVQLSLLTERGMGEAVQEFVDKEEKDAIEELVKYQLEKTQRFLKERHIDALEDKIDEEVRRFRETRQKNTNEEDDEVREAMTRARALRSQSEESASAFSADDLMSIDLAEQMANDSDDSISAATNKGRGRGRGRRGGRGQNSASRGGSQRGRADTGLETSTRSRNSKTAVSASRNMSIIDAFKSTRQQPSRNVTTKNYSEVIEVDESDVEEDIFPTTSKTDQRWSSTSSSKIMSQSQVSKGVDFESSEDDDDDPFMNTSSLRRNRR
Q: Does B3 bind [3]?
A: binds

Q: Does B3 bind [4]?
A: binds
